PMC9972897 (Science immunology, 2023)
Positions count from the first letter of the chain named.

B1: rbd.046 (antibody, V domains shown)
VH: EVQLVESGGGVVQPGRSLRLSCAASGFTFSHYGMHWVRQAPGKGLEWVAVISYDGSNKYYADSVKGRFTISRDNSKSTLYLQMNSLRAEDTAVYYCAKGEWYYDIFTGYYPYWGQGTLVTVSS
VL: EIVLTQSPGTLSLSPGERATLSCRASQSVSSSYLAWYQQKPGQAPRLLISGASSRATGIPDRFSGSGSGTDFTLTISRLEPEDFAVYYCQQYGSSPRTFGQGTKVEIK
B2: rbd.038 (antibody, V domains shown)
VH: QVQLVQSGAEVKKPGASVKVSCKASGYTFSGYYMHWVRQAPGQGLEWVGWISPTSGGTKYAQKFQGRVTMTRDTSITTVYMELNRLRSDDTAVYYCAREPFPYCTSDICHSNYFYYYAMDVWGQGTTVTVSS
VL: QSALTQPPSASGSPGQSVTISCTGSSSDLGDHNYVSWYQQHPGKAPKVMIYEVSKRPSGVPDRFSGSKSGNTASLTVSGLQAEDEADYYCSSYAGSLYVFGTGTKVTVL
B3: rbd.035 (antibody, V domains shown)
VH: EVQLLESGGGLIEPGGSLRLSCAASGFPFNTFAMTWVRQPPGKGLEWVATISSRGDYTFYADFVKGRFSISRDNANNALWLDMSGLRAEDTALYYCAKGESGYDLYLYGLDLWGQGTTVTVSS
VL: DIQMTQSPSSLSASVGDGVTITCRASQNINNYLSWYQKKAGKAPKLLIYGASTLHSGVPSRFSGSGSGTDFTLTISSLQPEDFASYYCQQNSPTPPWTFGQGTKVEIK
B4: rbd.049 (antibody, V domains shown)
VH: QLQLQESGPGLVKPSETLSLSCTVSGGSISSKSDYWGWIRQSPGKGLEWIGSIYYTGTTYYNPSLKSRVSISLDKSKNQFSLKLNSLTAADTALYYCARDPSIAVATTVYFDAWGQGTLVTVSS
VL: EIVLTQSPGTLSLSPGERATLSCRASESVKSNYLAWYQQKLGQPPRLLIFGASTRATGIPDRFSGSGSGTDFTLTISRLEPEDFAVYYCQQYHTSPPRYTFGQGTKLEIK
B5: rbd.045 (antibody, V domains shown)
VH: QVQLQESGPGLVKPSETLSLTCTVSGGAFRSFFWTWIRQPPGKGLEWIGNIYYSGSTNYNPSLKSRVTISQDMSENQFSLKLSSVTAADTAVYYCARSQWLRGNFDHWGQGILVTVSS
VL: NFMLTQPHSVSESPGKTVTISCTATSGYIASNYVQWYQQRPGSAPTTVIYEDNQRPSGVPDRFSGSIDSSSNSASLTISGLKPEDEADYYCQSFDTAYAVFGGGTQLTVL
B6: rbd.043 (antibody, V domains shown)
VH: QVQLVQSGAEVKKPGSSVKVSCKVSGGSFSNYGISWVRQAPGQGLEWMGGIIPLFGPADYAQKVQGRVTITADKSTSTAYMELRSLRSEDTAVYFCARGVEIVATIVGPLVREDHYYYYGMDVWGQGTTVTVSS
VL: not shown
B7: rbd.048 (antibody, V domains shown)
VH: EVQLVESGGGLVQPGGSLRLSCAASGFTVSSNYMTWVRQAPGKGLEWVSVIYSGGSTFYTDSVKGRFTISRDNSKNTLYLQMNSLRAEDTAVYYCARDVVYYGMDVWGQGTTVTVSS
VL: DIQMTQSPSSLSASVGDRVTITCRASQSISSYLNWYQQKPGKAPKLLIYAASSLQSGVPSRFSGSGSGTDFTLTISSLQPEDFATYYCQESYSNSPYTFGQGTKLEIK
B8: hr2.021 (antibody, V domains shown)
VH: QVQLVQSGAEVKKPGASVKVSCKASEAIFSGSYLHWVRQAPGQGLEWMGIITPSGDKTFYAQRFQGRLTMTRDTSTNTLHMHLSGLNSEDTAMYYCARQADKGGWDYWGQGTLVTVSS
VL: EIVLTQSPGTLSLSPGERATLSCRASQSVTSNYVAWYQQKPGQAPRLLIYGASTRATGIPDRFSGGGSGTDFTLTITRLEPEDFAVYYCQQYGSSPPTFTFGPGTKVDIK
B9: hr2.024 (antibody, V domains shown)
VH: QVQLVQSGAEVKKPGASVKVSCKASEDIFTDSYLHWVRQAPGQGLEWMGIITPSGDKTFYAQQFQGRLTMTRDPSTNTLYMFLSGLRSDDTAMYFCARQAEKGGWDYWGHGTLVTVSS
VL: B8 VL with E17Q, A25S, S28T, V29I, V34L, K40R, T54I, G66S, T77S, T100I
B10: hr2.012 (antibody, V domains shown)
VH: QVQLVQSGAEVKKPGASVKVSCKASGYTFTSHYIHWVRQAPGQGLEWMGIIKPSGGNTIYAQTFQGRVTMTRDTSTSTVYMELRSLTSDDTAVYYCARDQDHGLQRWGQGTLVTVSS
VL: QSVLTQPPSVSAPPGQKVTISCSGSSSNIGNNFVSWYQQLPGTAPKLLIYDNIERPSGIPDRFSGSRSGTSATLGITGLQTGDEADYYCGTWDTSLGAWVFGGGTKVTVL
B11: hr2.015 (antibody, V domains shown)
VH: QVQLVQSGAEVKKPGASVKVSCKASGYTFSSYYVNWVRQAPGQGLEWLGIINRSGSSTIYAQKFQGRVTMTRDTSTSTVYLELSSLRSEDTAVYYCARDQDHALHWGQGTLVTVSS
VL: B10 VL with P13A, N31S, F33Y, I53S, G97S, V107L
B12: hr2.013 (antibody, V domains shown)
VH: QVQLVQSGAEVKKPGASVKISCKASGYTFTNNYMNWVRQAPGQGLEWMGIIKPSSGSTIYAHKFQGRVTMTRDTSTSTVYMEVRSLTSEDTAVYYCARDQDHGLQNWGQGTLVTVSS
VL: B10 VL with P13A, P14S, S21Y, G30A, N31S, L40F, I53N, E54Q, V107L
B13: hr2.014 (antibody, V domains shown)
VH: QVQLVQSGAEVKKPGASVKVSCKASGYTFTTYAVHWLRQVPGQRPEWIGWINAANGNTKYSEKFQGRVTITRDTSASTAYMDLRSLRSEDTAVYYCARLLVVRDDPYYYGMDVWGQGTTVTVSS
VL: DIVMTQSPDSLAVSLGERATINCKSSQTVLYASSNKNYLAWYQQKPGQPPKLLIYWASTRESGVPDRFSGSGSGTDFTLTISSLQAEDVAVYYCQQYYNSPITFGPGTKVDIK
B14: hr2.020 (antibody, V domains shown)
VH: EVQLVQSGAEVKKPGESLKISCKGSGYRFASHWIGWVRQMPGKGLQWMGIIYPGDSDTKYSPSFQGQVTISADKSINTVYLHWTSLKASDTAVYYCARRPPHLDGGDSPIRFDHWGQGTLVTVSS
VL: QSVLTQPPSASGTPGQRVTISCSGSRSNIGSNDVYWYQQFPGTAPKLLIYRNNQRPSGVPDRFSGSKSGTSASLAISGLRSEDEADYYCATWDDRLTGVFGGGTKLTVV
B15: hr2.018 (antibody, V domains shown)
VH: EVQLVESGGGLVKPGGSLRLSCVASGSSVIDAWMNWVRQAPGKGLEWVGRIKSKTNGATTDYAAPVKGRFTISRDDSKNLSYLQMNSLKTEDTGIYYCTTSPLPNFDYWGRGTLVTVSS
VL: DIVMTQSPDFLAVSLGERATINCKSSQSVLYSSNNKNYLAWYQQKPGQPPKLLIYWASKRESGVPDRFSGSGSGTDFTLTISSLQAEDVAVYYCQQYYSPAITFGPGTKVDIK
B16: hr2.019 (antibody, V domains shown)
VH: B15 VH with V23A, A32V, S53T, T55A, N56S, T59A, A63G, K89R, T90A
VL: DIVMTQSPDFLAVSLGETATINCRSSQSVFYFANNKNYLAWYQQKPGQPPKLLIYWASKRESGVPDRFSGSGSGTDFTLTISSLQAEDVATYYCQQYSSPAITFGPGTKVDIK
B17: hr2.017 (antibody, V domains shown)
VH: EVQLVESGGGLVQPGGSLRLSCAVSGFAFSSSWMHWIRQAPGRGLVWVSRINRDGSTTDYADSVKGRFTISRDNAKATLYLQMNSLRAEDTAVYYCATMGFDYWGQGALVTVSS
VL: DIVMTQSPDSLAVSLGERATINCKSSQNVLYSSNNKNHLSWYQQKPGQPPKLLIYWASTRKSGVPDRFSGSGSGTDFTLTINSLQAEDVAVYYCQQYFSTPNTFGQGTKLEIK
B18: hr2.025 (antibody, V domains shown)
VH: EVQLVQSGAEVKKPGESLKISCKGSGYSFTNYWIAWVRLMPGKGLEWMGFIFPGDSDTRYSPSFQGQVTISADKSISTAYLQWSSLKASDTAIYYCARRRGNSGNHDPYGMDVWGHGTTVTVSS
VL: not shown

The binders below were run against SD1-RBD of SARS-CoV-2 S (ancestral), aa 319-591 (SARS-CoV-2, ancestral (Wuhan-Hu-1; …, UniProt P0DTC2).

Does B1 bind?
Result: binds

Does B2 bind?
Result: binds

Does B3 bind?
Result: binds

Does B4 bind?
Result: binds

Does B5 bind?
Result: binds

Does B6 bind?
Result: binds

Does B7 bind?
Result: binds

Each binder was assayed against SARS-CoV-2 S-2P ectodomain trimer (ancestral) (SARS-CoV-2 (ancestral, MN908947), stabilised).

Does B8 bind?
Result: binds

Does B9 bind?
Result: binds

Does B10 bind?
Result: binds

Does B11 bind?
Result: binds

Does B12 bind?
Result: binds

Does B13 bind?
Result: binds

Does B14 bind?
Result: binds

Does B15 bind?
Result: binds

Does B16 bind?
Result: binds

Does B17 bind?
Result: binds

Does B18 bind?
Result: binds
